Test results reported in patent publication US7608695B2, “Substance with antithrombotic activity and method for detecting glycokallidin” (Ajinomoto Co., Inc., priority 1998, dated 2009).

Assays:
[1] = test system: anti-glycocalicin antibodies; conditions: competitive ELISA, literature; cited from earlier work
[2] = biological target: T1, binding of von Willebrand factor and chimeric protein (glycoprotein Ib) (Homo sapiens, UniProt P04275+P07359); test: Detection of glycocalicin in plasma using chimeric protein labeled with europium (Eu); set-up: made in house; host or cells: CHOK1 cells transfected with pMikGPIbFc; purified on a Protein A column and labelled with europium; conditions: diluted human plasma, based on reported blood concentration about 2 μg/ml
Method: The detection was carried out in the same manner as that of Example 4 <2> except that svon Willebrand factor was immobilized by using a mixed solution (TBS) containing 2.5 μg/ml of von Willebrand factor and 2.5 μg/ml of botrocetin, and a binding inhibition substance of which inhibitory activity was desired to be measured was added to the reaction of the immobilized von Willebrand factor and the chimeric protein labeled with europium (Eu).
Each human plasma independently prepared in the same manner as the above <1> were successively diluted 2-fold with TBS (8 times of dilution in total), and 25 μl each of the diluted plasma was added to each well of a von Willebrand factor immobilized plate prepared in the same manner as in Example 5 <1> (microtitration plate DELFIA, 1244-550, produced by Pharmacia Biotech, was used as the base plate). Further, 25 μl a solution of the chimeric protein labeled with europium (Eu) in assay buffer prepared in the same manner as in Example 4 <1> (100 ng/ml, Assay Buffer; 1244-106, produced by Pharmacia Biotech) was added to each well of the plate for reaction. The subsequent washing and measurement were performed in the same manner as in Example 5 <2>, and the average values of the results are shown in FIG. 7.

[3] = biological target: T1, binding of von Willebrand factor and chimeric protein (glycoprotein Ib); test: Detection of glycocalicin in plasma by ELISA using anti-mouse IgG-Fc antibodies; set-up: made in house; host or cells: CHOdhfr- cells transfected with pSDGPIbIgG1Fc; unpurified serum-free culture supernatant; conditions: diluted human plasma, based on reported blood concentration about 2 μg/ml
Method: Immobilization of a mixed solution of von Willebrand factor and botrocetin on a 96-well multititer plate was attained as follows. First, a physiological saline solution of von Willebrand factor (250 μg/ml) and a physiological saline solution of botrocetin (500 μg/ml), which were prepared in a conventional manner, were appropriately diluted, and mixed at the concentration ratios shown in FIG. 2. Then, 50 μl of each mixture was added to each well of a 96-well multititer plate (Maxisorp, produced by Nunc). […]
Each well was washed 5 times with TBS (150 μl) containing 0.05% Tween-20, and added with 100 μl of 100 mM NaHCO3 solution containing 10 mM MgCl2, in which p-nitrophenylphosphate was dissolved at 1 mg/ml, to carry out the color development reaction for about 1 hour. After the color development, absorbance at 405 nm was measured.
The detection was carried out in the same manner as that of Example 4 <1> except that von Willebrand factor was immobilized by using a mixed solution (TBS) containing 2.5 μg/ml of von Willebrand factor and 2.5 μg/ml of botrocetin, and a binding inhibition substance of which inhibitory activity was desired to be measured was added to the reaction of the immobilized von Willebrand factor and the culture supernatant of the chimeric protein producing cells. […]

## glycocalicin: enzymatically cleaved extracellular portion of platelet membrane glycoprotein Ibα chain, about 135 kDa
[1]
  IC50 value of the glycocalicin concentration showing competitive inhibition: about 4 μg/ml
[2]
  Glycocalicin concentration showing 50% binding inhibition: about 60 ng/ml
[3]
  Glycocalicin concentration showing 50% binding inhibition: about 400 ng/ml
